Numbering of substitutions follows the chain as printed.
B1: cCl1-1 (antibody, V domains shown)
VH: QIQLVQSGPELKKPGESVKISCKASGYTFTDYAMHWVKQAPGKGLKWMGWINTYTGKPTYADDFKGRFVFSLEASASTANLQISNLKNEDTATYFCARAVFYGYTMDAWGQGTSVTVSS
VL: DIQMTQSPASLSASLGETISIACRASEDIYSNLAWYQQKSGKSPQLLIFSVKRLQDGVPSRFSGSGSGTQYSLKISGMQPEDEGDYFCLQGSNFPLTFGSGTKLEIK
notes: Chimeric antibody from rat hybridoma, detected with anti-human IgG
B2: hCL1a-LC-G2-PNU (antibody, human IgG1, kappa)
heavy: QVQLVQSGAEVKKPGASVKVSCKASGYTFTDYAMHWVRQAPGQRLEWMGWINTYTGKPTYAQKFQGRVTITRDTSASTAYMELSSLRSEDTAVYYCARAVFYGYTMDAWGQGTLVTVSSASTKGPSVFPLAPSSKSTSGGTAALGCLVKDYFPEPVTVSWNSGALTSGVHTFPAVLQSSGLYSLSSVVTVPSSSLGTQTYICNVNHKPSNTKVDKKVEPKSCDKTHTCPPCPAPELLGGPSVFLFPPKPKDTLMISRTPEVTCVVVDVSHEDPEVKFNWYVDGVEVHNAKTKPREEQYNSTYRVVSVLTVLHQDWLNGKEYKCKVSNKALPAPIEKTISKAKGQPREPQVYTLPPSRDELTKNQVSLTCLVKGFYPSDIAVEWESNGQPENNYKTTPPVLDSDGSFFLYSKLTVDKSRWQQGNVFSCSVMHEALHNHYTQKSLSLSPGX
light: DIQMTQSPSSLSASVGDRVTITCRASEDIYSNLAWYQQKPGKAPKLLIFSVKRLQDGVPSRFSGSGSGTDFTLTISSLQPEDFATYYCLQGSNFPLTFGQGTKVEIKRTVAAPSVFIFPPSDEQLKSGTASVVCLLNNFYPREAKVQWKVDNALQSGNSQESVTEQDSKDSTYSLSSTLTLSKADYEKHKVYACEVTHQGLSSPVTKSFNRGECGGGGSLPQTGG
modifications: PNU-159682 linked through ethylenediamine to the C-terminal Gly of the GGGGSLPQTGG tag
B3: hCL1c-LC-G2-PNU (antibody, human IgG1, kappa)
heavy: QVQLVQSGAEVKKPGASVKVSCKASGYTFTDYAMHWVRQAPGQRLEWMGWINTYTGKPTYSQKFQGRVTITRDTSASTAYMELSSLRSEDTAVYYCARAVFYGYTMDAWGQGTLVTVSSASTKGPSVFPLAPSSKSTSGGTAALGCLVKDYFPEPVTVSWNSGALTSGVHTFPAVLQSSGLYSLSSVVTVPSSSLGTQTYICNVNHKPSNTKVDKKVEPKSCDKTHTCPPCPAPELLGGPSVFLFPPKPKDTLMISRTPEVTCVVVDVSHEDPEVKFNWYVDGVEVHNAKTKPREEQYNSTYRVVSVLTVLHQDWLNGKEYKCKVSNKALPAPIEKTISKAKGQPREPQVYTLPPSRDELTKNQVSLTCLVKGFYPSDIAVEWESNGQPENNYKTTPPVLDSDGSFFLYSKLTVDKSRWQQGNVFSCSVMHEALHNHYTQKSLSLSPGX
light: B2 light with A25T, S50A, V51I, N93K
modifications: PNU-159682 linked through ethylenediamine to the C-terminal Gly of the GGGGSLPQTGG tag
B4: hCL1g-LC-G2-PNU (antibody, human IgG1, kappa)
heavy: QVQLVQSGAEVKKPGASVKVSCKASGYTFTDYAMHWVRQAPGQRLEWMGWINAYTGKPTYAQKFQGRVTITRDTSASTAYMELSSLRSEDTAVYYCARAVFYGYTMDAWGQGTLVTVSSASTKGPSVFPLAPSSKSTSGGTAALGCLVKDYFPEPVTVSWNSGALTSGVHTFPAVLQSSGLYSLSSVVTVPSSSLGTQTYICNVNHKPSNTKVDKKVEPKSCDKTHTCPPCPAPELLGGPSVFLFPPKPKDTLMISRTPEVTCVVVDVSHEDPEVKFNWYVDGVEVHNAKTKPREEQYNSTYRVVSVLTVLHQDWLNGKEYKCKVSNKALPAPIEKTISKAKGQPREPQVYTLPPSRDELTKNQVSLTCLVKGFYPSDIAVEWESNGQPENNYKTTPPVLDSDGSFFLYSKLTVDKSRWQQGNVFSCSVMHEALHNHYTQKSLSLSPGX
light: B2 light with A25T, L33F, F49Y, K52N, N93K
modifications: PNU-159682 linked through ethylenediamine to the C-terminal Gly of the GGGGSLPQTGG tag
B5: hCL1e-LC-G2-PNU (antibody, human IgG1, kappa)
heavy: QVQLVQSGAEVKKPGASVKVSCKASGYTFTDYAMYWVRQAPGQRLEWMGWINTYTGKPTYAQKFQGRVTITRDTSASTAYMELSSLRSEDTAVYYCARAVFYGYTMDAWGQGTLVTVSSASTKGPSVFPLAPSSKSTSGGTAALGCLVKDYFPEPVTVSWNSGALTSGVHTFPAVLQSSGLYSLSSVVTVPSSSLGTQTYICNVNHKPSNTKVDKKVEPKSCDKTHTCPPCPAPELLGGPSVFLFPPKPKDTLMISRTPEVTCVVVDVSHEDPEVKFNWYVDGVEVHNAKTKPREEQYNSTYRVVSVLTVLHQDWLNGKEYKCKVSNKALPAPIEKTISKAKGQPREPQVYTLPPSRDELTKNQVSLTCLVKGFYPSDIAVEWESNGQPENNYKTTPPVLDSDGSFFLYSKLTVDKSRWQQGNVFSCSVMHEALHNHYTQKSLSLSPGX
light: B2 light
modifications: PNU-159682 linked through ethylenediamine to the C-terminal Gly of the GGGGSLPQTGG tag
B6: hCL1b-LC-G2-PNU (antibody, human IgG1, kappa)
heavy: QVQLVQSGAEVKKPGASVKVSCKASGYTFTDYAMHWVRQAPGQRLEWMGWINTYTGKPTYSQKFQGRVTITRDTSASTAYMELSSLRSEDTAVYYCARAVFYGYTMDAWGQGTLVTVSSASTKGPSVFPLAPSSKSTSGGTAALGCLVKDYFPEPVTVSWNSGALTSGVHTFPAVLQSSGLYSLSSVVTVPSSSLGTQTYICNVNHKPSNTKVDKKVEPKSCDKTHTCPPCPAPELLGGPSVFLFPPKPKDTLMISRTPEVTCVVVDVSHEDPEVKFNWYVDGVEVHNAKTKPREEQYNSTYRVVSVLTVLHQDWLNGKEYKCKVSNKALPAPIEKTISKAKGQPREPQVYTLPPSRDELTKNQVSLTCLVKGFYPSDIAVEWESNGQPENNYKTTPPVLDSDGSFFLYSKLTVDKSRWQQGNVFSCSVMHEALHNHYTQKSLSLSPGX
light: B2 light
modifications: PNU-159682 linked through ethylenediamine to the C-terminal Gly of the GGGGSLPQTGG tag
B7: hCL1i-LC-G2-PNU (antibody, human IgG1, kappa)
heavy: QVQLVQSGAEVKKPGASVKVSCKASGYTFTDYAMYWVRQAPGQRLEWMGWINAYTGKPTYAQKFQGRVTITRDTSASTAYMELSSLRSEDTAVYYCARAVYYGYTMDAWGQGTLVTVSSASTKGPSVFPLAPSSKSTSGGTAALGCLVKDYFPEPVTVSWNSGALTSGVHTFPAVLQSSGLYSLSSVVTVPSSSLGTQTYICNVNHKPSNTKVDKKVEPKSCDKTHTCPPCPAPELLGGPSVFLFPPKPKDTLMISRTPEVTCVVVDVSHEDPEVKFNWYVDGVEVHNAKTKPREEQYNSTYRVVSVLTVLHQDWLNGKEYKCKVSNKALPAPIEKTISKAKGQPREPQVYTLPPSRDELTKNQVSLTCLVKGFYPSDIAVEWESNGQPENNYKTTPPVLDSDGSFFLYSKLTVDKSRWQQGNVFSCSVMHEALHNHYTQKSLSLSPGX
light: B2 light
modifications: PNU-159682 linked through ethylenediamine to the C-terminal Gly of the GGGGSLPQTGG tag
B8: hCL1j-LC-G2-PNU (antibody, human IgG1, kappa)
heavy: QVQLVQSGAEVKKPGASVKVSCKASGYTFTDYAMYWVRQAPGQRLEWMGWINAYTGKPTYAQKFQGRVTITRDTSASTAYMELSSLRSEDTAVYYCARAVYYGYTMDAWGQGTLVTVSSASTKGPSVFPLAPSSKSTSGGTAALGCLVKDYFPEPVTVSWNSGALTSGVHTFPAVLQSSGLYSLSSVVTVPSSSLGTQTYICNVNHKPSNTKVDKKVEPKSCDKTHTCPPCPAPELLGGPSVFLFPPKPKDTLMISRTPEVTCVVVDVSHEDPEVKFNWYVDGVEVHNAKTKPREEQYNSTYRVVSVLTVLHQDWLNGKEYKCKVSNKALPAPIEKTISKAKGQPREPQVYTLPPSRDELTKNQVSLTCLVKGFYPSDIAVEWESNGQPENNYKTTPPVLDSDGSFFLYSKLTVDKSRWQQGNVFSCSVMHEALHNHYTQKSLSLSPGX
light: B2 light with A25T, S50A, V51I, N93K
modifications: PNU-159682 linked through ethylenediamine to the C-terminal Gly of the GGGGSLPQTGG tag
B9: hCL1d-LC-G2-PNU (antibody, human IgG1, kappa)
heavy: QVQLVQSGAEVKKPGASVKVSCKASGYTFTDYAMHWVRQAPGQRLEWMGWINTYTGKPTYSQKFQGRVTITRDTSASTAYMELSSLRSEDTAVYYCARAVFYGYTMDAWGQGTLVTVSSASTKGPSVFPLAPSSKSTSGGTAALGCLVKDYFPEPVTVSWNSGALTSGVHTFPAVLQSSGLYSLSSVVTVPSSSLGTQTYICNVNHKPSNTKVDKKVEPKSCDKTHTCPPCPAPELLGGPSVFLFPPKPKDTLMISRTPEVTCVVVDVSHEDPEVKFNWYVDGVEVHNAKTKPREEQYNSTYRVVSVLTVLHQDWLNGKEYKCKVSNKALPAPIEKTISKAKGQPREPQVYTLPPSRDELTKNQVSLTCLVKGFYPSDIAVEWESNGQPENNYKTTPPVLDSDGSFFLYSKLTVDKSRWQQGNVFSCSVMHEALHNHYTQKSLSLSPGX
light: B2 light with A25T, L33F, F49Y, K52N, N93K
modifications: PNU-159682 linked through ethylenediamine to the C-terminal Gly of the GGGGSLPQTGG tag
B10: hCL1h-LC-G2-PNU (antibody, human IgG1, kappa)
heavy: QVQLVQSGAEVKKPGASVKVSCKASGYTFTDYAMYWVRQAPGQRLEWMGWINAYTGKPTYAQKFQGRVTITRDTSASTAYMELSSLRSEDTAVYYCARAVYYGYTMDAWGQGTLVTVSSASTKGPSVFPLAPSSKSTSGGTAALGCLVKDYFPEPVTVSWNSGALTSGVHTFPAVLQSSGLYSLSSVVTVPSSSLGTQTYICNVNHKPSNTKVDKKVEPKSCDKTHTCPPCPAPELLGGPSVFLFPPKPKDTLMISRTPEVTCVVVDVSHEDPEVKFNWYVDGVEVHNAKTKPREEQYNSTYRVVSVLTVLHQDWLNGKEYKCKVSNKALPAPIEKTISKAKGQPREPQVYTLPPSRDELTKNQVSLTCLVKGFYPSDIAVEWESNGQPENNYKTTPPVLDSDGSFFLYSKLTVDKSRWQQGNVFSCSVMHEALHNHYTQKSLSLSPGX
light: B2 light with F49Y
modifications: PNU-159682 linked through ethylenediamine to the C-terminal Gly of the GGGGSLPQTGG tag
B11: hCL1f-LC-G2-PNU (antibody, human IgG1, kappa)
heavy: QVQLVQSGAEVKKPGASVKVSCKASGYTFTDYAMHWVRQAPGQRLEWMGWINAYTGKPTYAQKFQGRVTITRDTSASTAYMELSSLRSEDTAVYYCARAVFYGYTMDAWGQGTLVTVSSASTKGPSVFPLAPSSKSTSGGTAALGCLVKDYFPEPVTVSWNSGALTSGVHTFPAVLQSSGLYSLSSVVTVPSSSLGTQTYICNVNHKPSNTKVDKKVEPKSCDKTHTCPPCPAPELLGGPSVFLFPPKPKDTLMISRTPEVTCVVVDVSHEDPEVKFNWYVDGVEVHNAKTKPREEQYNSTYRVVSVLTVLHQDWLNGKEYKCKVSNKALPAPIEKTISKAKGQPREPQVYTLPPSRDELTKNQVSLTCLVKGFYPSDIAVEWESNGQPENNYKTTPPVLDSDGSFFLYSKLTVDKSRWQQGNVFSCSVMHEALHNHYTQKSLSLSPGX
light: B2 light with F49Y
modifications: PNU-159682 linked through ethylenediamine to the C-terminal Gly of the GGGGSLPQTGG tag
B12: cCl1-2 (antibody, V domains shown)
VH: B1 VH with A24T, A40G, L45M, T53A, F70L, F101Y, T116I
VL: B1 VL with A22E, A25T, L33F, Y36F, F49Y, K52N, N93K
notes: as for B1
B13: cCl1-3 (antibody, V domains shown)
VH: B1 VH with H35Y, A40V, K46R
VL: B1 VL with A25T, S50A, V51I, N93K
notes: as for B1

The binders below were run against T1, human CLDN18.2 (Claudin 18.2) expressed on cells (human) (assay: % positive tumor cells divided by % positive healthy stomach cells, flow cytometry, mouse 2).
T1 construct: also called huCLDN18.2; hCLDN18.2
Procedure: (§1) Two Balb/c mice were implanted subcutaneously with 1×10⁶ A549 cells expressing CLDN18.2 in 100 μl of 50% Matrigel and tumors growth was monitored over a few weeks until the tumor reached the desired size between 150-450 mm³. Healthy stomach tissue and tumor tissue was collected for FC analysis. The collected tissues were cut into small pieces and digested with the Miltenyi tumor dissociation kit (MACS Miltenyi Biotec, Germany). Tissue pieces were incubated with dissociation buffer (prepared according to the manufacturer instruction) in 6 well plates for 30 min in 37° C. under permanent gentle rocking motion. Samples were resuspended and strained through a 70 μm cell strainer (Corning, USA) followed by a wash with 20 ml FC buffer (PBS+2% FBS). Cell suspensions were centrifuged (5 min at 400 g for 4° C.) and the supernatants were discarded. If needed, cell suspensions were passed through a strainer and centrifuged repeatedly and pellets resuspended in 5 ml of red blood cell lysis buffer (Biolegend, USA), incubated on ice for 4 min. After incubation, 25 ml of PBS was added, and the suspensions were centrifuged again (5 min at 400 g for 4° C.). Pellets were resuspended in FC buffer (0.5-3 ml based on pellets). Equal number of cells were transferred into 96 well plates and further processed for FC analysis. […]

| Binder | Ratio tumor/stomach |
| --- | --- |
| B1 | 50 |

These binders were tested against T1, human CLDN18.2 (Claudin 18.2) expressed … (assay: cell-based or functional assay).

| Binder | EC50 of in-vitro cytotoxicity, A549-CLDN18.2 cells (head of c2) [ng/mL] |
| --- | --- |
| B2 | 4.8 |
| B3 | 30 |
| B4 | 70.7 |
| B5 | 4.3 |
| B6 | 6.4 |
| B7 | 3.8 |
| B8 | 5.3 |
| B9 | 11.6 |
| B10 | 3.3 |
| B11 | 14 |

What follows are binders tested against T2, human CLDN18.1 (Claudin 18.1) expressed on cells (human, UniProt P56856 1-261) (assay: flow cytometry, L11 cells overexpressing huCLDN18.1 (FIG. 4)).
T2 construct: whole, on cells; Isoform 1 (lung isoform) of CLDN18; also called huCLDN18.1; hCLDN18.1
T2 sequence (P56856 whole entry, canonical isoform): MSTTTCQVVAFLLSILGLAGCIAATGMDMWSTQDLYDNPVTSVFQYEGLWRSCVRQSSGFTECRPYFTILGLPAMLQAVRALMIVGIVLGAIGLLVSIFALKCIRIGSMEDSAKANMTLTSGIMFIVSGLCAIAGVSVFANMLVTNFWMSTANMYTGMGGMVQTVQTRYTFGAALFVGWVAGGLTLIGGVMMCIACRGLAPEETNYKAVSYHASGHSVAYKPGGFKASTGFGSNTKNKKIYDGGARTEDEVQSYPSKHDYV
Procedure: The cells were stained on ice for 30 min using the antibodies at 2 μg/ml and, upon washing in PBS/2% FCS, stained with anti-human IgG (Fc gamma-specific) PE goat antibody (eBioscience) as secondary antibody for 30 min on ice.

| Binder | binding result |
| --- | --- |
| B1 | no binding (tested: 2 µg/ml) |
| B12 | no binding (tested: 2 µg/ml) |
| B13 | no binding (tested: 2 µg/ml) |

What follows are binders tested against T1, human CLDN18.2 (Claudin 18.2) expressed … (assay: % positive tumor cells divided by % positive healthy stomach cells, flow cytometry, average).
Procedure: as §1

| Binder | Ratio tumor/stomach |
| --- | --- |
| B1 | 74.3 |

These binders were tested against T1, human CLDN18.2 (Claudin 18.2) expressed … (assay: % positive tumor cells divided by % positive healthy stomach cells, flow cytometry, mouse 1).
Procedure: as §1

| Binder | Ratio tumor/stomach |
| --- | --- |
| B1 | 92.5 |

From US20240100180A1 (SOTIO BIOTECH A S, published 2024)
